In patent US20150216970A1 (Genentech, published 2015):
Values belong to the binder of their own block, whether it stands above or below them.

B1: Flag-ST-CD226 (N-terminus SNAP-tagged human CD226, expressed on transfected COS-7 or CHO cells) (receptor, UniProt Q15762 19-336, looked up)
chain: EEVLWHTSVPFAENMSLECVYPSMGILTQVEWFKIGTQQDSIAIFSPTHGMVIRKPYAERVYFLNSTMASNNMTLFFRNASEDDVGYYSCSLYTYPQGTWQKVIQVVQSDSFEAAVPSNSHIVSEPGKNVTLTCQPQMTWPVQAVRWEKIQPRQIDLLTYCNLVHGRNFTSKFPRQIVSNCSHGRWSVIVIPDVTVSDSGLYRCYLQASAGENETFVMRLTVAEGKTDNQYTLFVAGGTVLLLLFVISITTIIVIFLNRRRRRERRDLFTESWDTQKAPNNYRSPISTSQPTNQSMDDTREDIYVNYPTFSRRPKTRV
modifications: SNAP tag labelled with benzyl-guanine SNAP-Lumi-4Tb (donor) and/or SNAP-A647 (acceptor)
notes: whole, on cells; also called SNAP-tagged (ST) CD226; human ST-CD226; not shown: Flag tag; SNAP tag (ST)

Columns and labels:
TR-FRET on COS-7 cells = biological target: the molecule itself; assay: TR-FRET on COS-7 cells
Method: Briefly, COS-7 cells were transfected with SNAP-tagged (ST) CD226 and HA-TIGIT using Lipofectamine 2000 (Life Technologies) and seeded in a white 96-well plate (Costar) at 100,000 cells per well. 24 hours later, cells were labeled with 100 nM of donor-conjugated benzyl-guanine SNAP-Lumi-4Tb (Cisbio) and 1 μM […] benzyl-guanine SNAP-A647 (New England Biolabs) diluted in DMEM 10% FCS for 1 h at 37° C., 5% CO2. After three washes in PBS, the FRET signal was recorded at 665 nm for 400 μs after a 60 μs delay following laser excitation at 343 nm using a Safire2 plate reader (Tecan). When the anti-TIGIT antibody was tested, the FRET signal was also recorded after a 15 min incubation. The FRET ratio was then calculated as the FRET intensity divided by the donor emission at 620 nm. The FRET intensity being: (signal at 665 nm from cells labeled with SNAP-donor and acceptor)—(signal at 665 nm from the same batch of transfected cells labeled with SNAP-donor only).

[1] = biological target: T1, CD226-Flag (Flag-tagged human CD226, expressed in transfected COS 7 cells) (human, UniProt Q15762 19-336); assay: anti-FLAG and anti-HA immunoprecipitation and immunoblot from COS-7 cells transfected with Flag-CD226 and HA-TIGIT
T1 construct: whole, on cells; This is the construct of the co-immunoprecipitation; Cells were lysed before the pull-down; also called Flag-CD226; not shown: Flag tag
T1 sequence (looked up): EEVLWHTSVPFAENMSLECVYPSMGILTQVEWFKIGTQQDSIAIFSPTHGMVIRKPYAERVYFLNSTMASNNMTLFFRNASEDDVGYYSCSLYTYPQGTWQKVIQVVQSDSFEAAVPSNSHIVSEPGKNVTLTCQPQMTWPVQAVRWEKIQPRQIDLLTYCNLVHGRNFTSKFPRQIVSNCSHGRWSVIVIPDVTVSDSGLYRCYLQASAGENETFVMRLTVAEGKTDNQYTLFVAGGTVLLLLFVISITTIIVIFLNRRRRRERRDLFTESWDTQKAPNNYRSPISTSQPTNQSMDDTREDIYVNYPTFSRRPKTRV

[2] = biological target: B1; assay: TR-FRET on transfected COS-7 cells
[3] = biological target: T2, endogenous CD226 on primary human T cells (human, UniProt Q15762 19-336); assay: TR-FRET on primary human T cells with fluorophore-conjugated anti-TIGIT (clone 1F4) and anti-CD226
T2 construct: whole, on cells
T2 sequence (looked up): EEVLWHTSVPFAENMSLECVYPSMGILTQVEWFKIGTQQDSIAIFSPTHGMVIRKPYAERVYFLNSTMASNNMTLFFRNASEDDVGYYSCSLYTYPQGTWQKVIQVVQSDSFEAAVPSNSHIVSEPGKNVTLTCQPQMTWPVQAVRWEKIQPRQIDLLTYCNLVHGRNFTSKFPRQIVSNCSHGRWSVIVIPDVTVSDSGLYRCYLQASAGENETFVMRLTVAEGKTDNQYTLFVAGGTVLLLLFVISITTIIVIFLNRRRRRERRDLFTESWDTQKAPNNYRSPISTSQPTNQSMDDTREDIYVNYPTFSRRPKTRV
Source text: Primary human T cells were stimulated in vitro with anti-CD3 and anti-CD28 antibodies, sorted on the basis of TIGIT expression, rested, re-stimulated, and labeled with antibodies against endogenous TIGIT and CD226 that were conjugated to fluorophores compatible with TR-FRET. TIGIT-expressing T cells labeled with donor-conjugated anti-TIGIT and acceptor-conjugated anti-CD226 antibodies yielded a strong FRET signal (FIG. 30).
Human anti-TIGIT (Genentech clone 1F4), anti-CD226 (Santa Cruz Biotechnology), and anti-HVEM (eBioscience) antibodies were conjugated fluorophores compatible with TR-FRET (Cisbio). Primary human T cells were MACS-enriched from blood, stimulated in vitro with plate bound anti-CD3 and anti-CD28 for 72 hours. TIGIT-expressing and non-expressing T cells (all expressing CD226) were then sorted, rested without stimulation for 72 hours, and re-stimulated for 48 hours. […] T cells were then seeded at 400,000 cells/well in a white 96-well plate (Costar) and TR-FRET was recorded at 665 nm for 400 μs after a 60 μs delay following laser excitation at 343 nm using a PHERAstar plate reader (BMG Labtech). FRET intensity was expressed as the signal at 665 nm from cells labeled with Ab-Lumi4-Tb+Ab-d2 minus the signal at 665 nm from the same batch of cells labeled with Ab-Lumi4-Tb alone. […]

[4] = biological target: B1; assay: TR-FRET ratio between Flag-ST-CD226 and HA-TIGIT Q56R

Binder: B1
binding result (TR-FRET on COS-7 cells): binds

binding result [1]: binds | binding result [2]: binds
B2: HA-TIGIT (N-terminus HA-tagged human TIGIT, expressed on transfected COS-7 or CHO cells) (receptor, UniProt Q495A1 22-244, looked up)
chain: MMTGTIETTGNISAEKGGSIILQCHLSSTTAQVTQVNWEQQDQLLAICNADLGWHISPSFKDRVAPGPGLGLTLQSLTVNDTGEYFCIYHTYPDGTYTGRIFLEVLESSVAEHGARFQIPLLGAMAATLVVICTAVIVVVALTRKKKALRIHSVEGDLRRKSAGQEEWSPSAPSPPGSCVQAEAAPAGLCGEQRGEDCAELHDYFNVLSYRSLGNCSFFTETG
notes: whole, on cells; It is treated here as one construct; also called TIGIT-HA; HA-TIGIT (WT); not shown: HA tag at the N-terminus

binding result [3]: binds
B3: endogenous TIGIT on primary human T cells (receptor, UniProt Q495A1 22-244, looked up)
chain: MMTGTIETTGNISAEKGGSIILQCHLSSTTAQVTQVNWEQQDQLLAICNADLGWHISPSFKDRVAPGPGLGLTLQSLTVNDTGEYFCIYHTYPDGTYTGRIFLEVLESSVAEHGARFQIPLLGAMAATLVVICTAVIVVVALTRKKKALRIHSVEGDLRRKSAGQEEWSPSAPSPPGSCVQAEAAPAGLCGEQRGEDCAELHDYFNVLSYRSLGNCSFFTETG
notes: whole, on cells

binding result [4]: binds
B4: HA-TIGIT Q56R (receptor, UniProt Q495A1 22-244, looked up)
chain: MMTGTIETTGNISAEKGGSIILQCHLSSTTAQVTRVNWEQQDQLLAICNADLGWHISPSFKDRVAPGPGLGLTLQSLTVNDTGEYFCIYHTYPDGTYTGRIFLEVLESSVAEHGARFQIPLLGAMAATLVVICTAVIVVVALTRKKKALRIHSVEGDLRRKSAGQEEWSPSAPSPPGSCVQAEAAPAGLCGEQRGEDCAELHDYFNVLSYRSLGNCSFFTETG
notes: whole, on cells; also called Q56R TIGIT; not shown: HA tag
